Assay: yeast display, Sf9 membrane polyspecificity reagent, FACS + sequencing; frameworks hold sequencing errors
How it was run: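 After 36–48 hours of galactose induction, yeast (Saccharomyces cerevisiae BJ5465) displaying a synthetic nanobody library were stained at 4 °C for 1 hour with 10% biotinylated, detergent-solubilized Sf9 membrane reagent. Streptavidin microbeads enriched the stained cells before FACS sorting into low and high (top ~1%) gates on anti-HA and streptavidin fluorescence. Each clone's polyreactivity label reflects its gate of origin.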

## QVQLGESGGGLVQAGGSLGLSCAASGLTFIVYAMGWYRQAPGKERELVADITWSGGSTYYADSVKGRFTISRDNAKNTVYLQMNSLKPEDTAVYYCNRQSGNIMDYWGQGTQVTVSS
  polyreactivity (PSR sort gate): low polyreactivity

## QVQLVESGGGLVQAGGSLRLSCAASGFTFRYNAMGWYRQAPGKERELVAAISSDGITSYADSVKGRFTISRDNAKNTVYLQMNSLKPEDTAVYYCAADWRWYSAWHFGYWGQGTQVTVSS
  polyreactivity (PSR sort gate): high polyreactivity

## QVQLEESGVCLVQAGGSLRLSCAASGYIFISYARGWYREAPGKEREFVAAITGDGGSTYADSEKGRFTISRDNAKNTVYLLMNSLKPEDTAVYYCAVDGYGGEADYEFDHWGQGTQVNVSS
  polyreactivity (PSR sort gate): low polyreactivity

## QVQLVESGGGLVQAGGSLRLSCAASGRTIYVYAMGWYRQAPGKERELVADINWSGGSTYYADSVKGRFTISRDNAKNTVYLQMNSLKPEDTAVYYCAADDWVRRRSHSGPEGYVYWGQGTQVTVSS
  polyreactivity (PSR sort gate): low polyreactivity

## QVQLVESGGGLVQAGGSLRLSCAASGRIFHGYAMGWYRQAPGKERELVGAINSSGGSTYYADSVKGRFTISRDNAKNTVYLQMNSLKPQDTAVYYCAADWVVSGNNPTVDTYFWYEYWGQGTQVTVSS
  polyreactivity (PSR sort gate): low polyreactivity

## QVQVVESGGGLVQAGGSLRLSCAASGSIFKFNAMGWYRQAPGKERELVAAISYSGGNTDYADSVKGRFTISRDNAKNTVYLQMNSLKPEDTAVYYCAATSYLVLTLEYDYWGQGTQVTVSS
  polyreactivity (PSR sort gate): low polyreactivity

## QVQLVESGGGLVQAGGSLRLSCAASGFIFKRYAMGWYRQAPGKVRELGAAITGSGGSTYYADSVKGRFTISRDNAKNTVYLQMNSLKPEDTAVYYCARGNGGSLDYWGQGTQVTVSS
  polyreactivity (PSR sort gate): high polyreactivity

## QVQLVESGGGLVQAGGSLRLSSAASGSTSCPYAMGWYRQAPGKERELVATISWIGDRTYYADSVKGRFTISRDNAKNTFYLQMNSLKPEDTAVYYCNADYRGYANLEGDYWGQGTQVTVSS
  polyreactivity (PSR sort gate): low polyreactivity

## QVQLVDSGGGLVQAGGSLRLSCAASGSISYYNAMGWYRQAPGKERELVATITDSGGSTYYADSVKGRFTISRDNAKNTVYLQMNSLKPEDTAVYYCAVDYSEWYSIYDYWGQGTQVTVSS
  polyreactivity (PSR sort gate): low polyreactivity

## QVQLVESGGGLVQAGGSLRLSCAASGSIFVGNAMGWYRPAPGKERELVAAISSSGGSTYYADSVKGRFTISRDNAKNTVYLQMNSLKPEDTAVYYCAADIFSPAFDYWGQGTQVTVSS
  polyreactivity (PSR sort gate): low polyreactivity

## QVQLVESGGGLVQAGGSLRLSCAASGSIFYWNAMGWYRQAPGKERELVATITITTSTNYADSVKGRFTISRDNAKNTVYLQMNSLKPEDTAVYYCNAGAPYRYLDEYNYWGQGTQVTVSS
  polyreactivity (PSR sort gate): low polyreactivity

## QVQLVESGGGLVQAGGSLRLSCAASGRIFDEYAMGWYRQAPGKERELVAAIDTSTGSTYYADSVKGRFTISRDNAKNTVYLQMNSLKPEDTAVYYCAAEVYFGLFYVVFQYDYWGQGTQVTVSS
  polyreactivity (PSR sort gate): high polyreactivity

## QVQLVESGGGLVQAGGSLRISCAASGLIFRHNAMGWYRQAPGKERELVAAITGSGSTYYADSEKGRFTISRDNAKNTVYLQMNSLKPEDTAVYYGNADYPGGLQEEDYWGQGTQVTVSS
  polyreactivity (PSR sort gate): low polyreactivity

## QVQLVESGGGLVQAGGSLRLSCAASGFTFPYYAMGWYRQAPGKERELVAAISWSGGSTNYADSVKGRFTISRDNAKNTVYLQMNSLIPEDTAVYYCATLPGYSMDFWGQGSQVTVSS
  polyreactivity (PSR sort gate): high polyreactivity

## QVQLVESGGGLVQAGGSLRLSSAASGFNSSRNAMGWYRQAPGKERELVATISSGGDTYYADSVKGRFTISRDNAKNTVYLQMNSLKPEDTAVYYCATDRAERTGYTRYVKTYNYWGQGTQVTVSS
  polyreactivity (PSR sort gate): low polyreactivity

## QVQLVESGGGLVQAGGSLRLSCAASGYIFRSNAMGWYRQAPGKERELVAAISGGGRTNYADSVKGRFTISRDNAKNTVYLQMNSLKPEDTAVYYCAAGGYYQRTRGYWGQATQVTVSS
  polyreactivity (PSR sort gate): high polyreactivity

## QVQLVETGGGLDQAGVSLRLSCAASGSIFGYNDMGWYRQAPGKERELVAAIDCSDDITYYADSVKGRFTISRDNAKNTVYLQMYSLKPEETAVYYCAAVYYYYQYWAHTYYAGMEYWGQGTQVTVSS
  polyreactivity (PSR sort gate): high polyreactivity

## QVQLVESGGGLVKAGGSLRLSCAASGRTFGVYAMGWYRQAPGKEREFVAVISWSDDSTYYADSVKGRFTISRDNAKNTVYFQMNSLKPEDSAVYYCAAQTPYGMYYWRQGTQVTVSS
  polyreactivity (PSR sort gate): low polyreactivity

## QVQLVESGGGLVQAGGSLRLSCAASGSTFRHNAMGWYRQGPGKERELVATIRTSGGTTYYADSVKGRFTISRDNAKNTVYLQMNSLKPEDTAVYYCAAVSYLFLYQGYPIAYPMYYWGQGTQVTVSS
  polyreactivity (PSR sort gate): low polyreactivity

## QVQLVESGGGLVQAGGSLRLSCAASGRTFWVYAMGWYRQAPGKERELVAGISSGASTYYADSVKGRFTISRDNAKNTVYLQMNSLKPEDTAVYYCAAPYYRLTGWSRYDYWGQGTQVTVSS
  polyreactivity (PSR sort gate): high polyreactivity

## QVQLVESGGGLVQAGGSLRLSCAASGSIFGNKAMGWYRQAPGKERELVAASSNDGDNSYYADSVKGRFTISRDKAKNTVYLQMNSLKPEDTAVYYCAADYVGVTSVRYDYWGQGTEVTVSS
  polyreactivity (PSR sort gate): low polyreactivity

## QVQLVESGGCLVQAGGSLRLSCAASGSTFRYNAMGWYRPAPGKERELVAAITSSGGRTYYADSVKGRFTISRDNAKNTVYLQMNSLKPEDTAVYYCARRYLSVRGDSWGQGTQVTVSS
  polyreactivity (PSR sort gate): high polyreactivity

## QVQLVESGGGLVQAGGSLRLICAASGSIFYRNAMGWYRQAPGKERELVAAISSDGSTNYADSVKGRFTISRDNAKNTVYLQMNSLKPEDTAVYYCAAPWTQILDYWGQGTQVTVSS
  polyreactivity (PSR sort gate): low polyreactivity

## QVQLVESGGGLVQAGGSLRLSCAASGSIFGDNAMGWYRQAPRKERELVAVISSSGSTYYADSVKGRFTISRDNAKNTVFLQMNSLKPEDSAVYYCNAYQFDWYEEYYYWGQGTQVTVSS
  polyreactivity (PSR sort gate): low polyreactivity

## QVQLVESGGGLVQAGGSLRLSCAASGSTFLRYAMGWYRQAPGKERELVATISRCDDGTYYADSVKGRFKISRDNEKNTVFLQMNSLKPEDNAVYYCDARSWYLYYYWGQGTQVTVSS
  polyreactivity (PSR sort gate): low polyreactivity

## QVQLGESGGGLVQAGGSLRLSCAASGRIFQHNTMGWYRQAPGKEREFVAAIRRSGGSTYYADSVKGRFTISRDNAKNTVYLQMNSLKPEDTAVYYCAARDYPTGTRRWGGGDSWGQGTQVTLSS
  polyreactivity (PSR sort gate): low polyreactivity

## QVQLVESGGGLVQAGGSLRLSCAASGSIFQTYAMGWYRQAPGKERELVAAIDGGDTTNYADSVKGRFTISRDNAKNTVYLQMNSLKPEDTAVYYCNADWGQVTQVTVSS
  polyreactivity (PSR sort gate): low polyreactivity

## QVQLVESGGGLVQAGGSLRLSCAASGLIFYHNTMGWYRQAPGKEREFVASITQSGGSTYYADSVKGRFTISRDNAKNTVYLQMNSLKPEDTAVYYCAKRLRPGGYWYDYWGQGTQVTVSS
  polyreactivity (PSR sort gate): high polyreactivity

## QVQLVESGGGLVQAGGSLRLSCAASGIIFNSNAMGWYRQAPGKERELVAAISVSGGSTYYADSVKGRFTISRDNAKNTVYLQMNSLKPEDTAVYYCAAVFYYWSLRSYYWGQGTQVTVSS
  polyreactivity (PSR sort gate): high polyreactivity

## QVQLVESGGGLVQAGGSLRLSCAASGRTFALYAMGWYRQAPGKERELVASISWRGGSTYYADSVKGRFTISRDNAKNTVYLQMNSLKPEDTAVYYCAADTWSYGPLNYRLEYWGQGTQVTVSS
  polyreactivity (PSR sort gate): low polyreactivity

## QVQLVESGGGLVQAGGSLRLSCAASGVTFYAYAMAWYRQAPGKERELVAVISQSGTRTYYADSVKGRFTISRDNAKNTVYLQMNSLKPEDTAVYYCAAPKAQLQPYYYWGQGTQVTVSS
  polyreactivity (PSR sort gate): high polyreactivity

## QVQLVESGGGLVQAGGSLRLSCASSGFIIYSYAMGWYRQAPGKERELVAVISSRGGTTYYADSVKGRFTISRDNAKNTVYLQMNSLKPEDTAVYYCAADVWGPYDYWGQGTQVTVSS
  polyreactivity (PSR sort gate): low polyreactivity

## QVQLVESGGGLVQAGGILSLSCAASGNTFKGNAMGWYRQAPGKERELVAAISWSTDSTYYADSVKGRFTISRDNAKNSVYLQMNSLKPEDTAIYYCAADYSHLPIAWYYYWGQGTQVTVSS
  polyreactivity (PSR sort gate): low polyreactivity

## QVQLVESGGGLVQAGGSLRLSCAASGFTFPYYAMGWYRQAPGKERELVAAISKSGGSTYYADSVKGRFTISRDNAKNTVYLQMNSLKPEDTAVYYCAAQGGSKYRGYYYWGQGTQVTVSS
  polyreactivity (PSR sort gate): high polyreactivity

## QVQLVESGGGLVQAGGSLRISCAASGITFQSNAMGWYRQAPGTERELVAGITGNGGSTYYADSVKGRFTISRDNAKNTVYLQMNSLKPEDTAVYYCNIGRRKRTRYDYWGQGTQGTVSS
  polyreactivity (PSR sort gate): high polyreactivity

## QVQLVESGGGLVQAGGSLRLSCATSGRTYVPAMGWYRQAPGKERALVAAITSSGITYYADSVKGRVTISRDNAKNTVYLQMNSLNPEDTAVYYCATSYSNRWGWKYNYWGQGTQVTVSS
  polyreactivity (PSR sort gate): high polyreactivity

## QVQLVESGGGLVQAGGSLRLSCASSGRTFRVNAMVRYRHAPGKERELFAAITYTGGSTYYADSVKGRFTISRDNAKNTVYLQMNSLKPEDTAVYYCAARITSPRASSRGFYYWGQGTQVTVSS
  polyreactivity (PSR sort gate): high polyreactivity

## QVQLVESGGGLVQAGGSLRLSCAASGIIFVYYTMGWYRQAPGKERELVAAITSGGSTYYADSVKGRFTISRDNAKNTVYLQMNSLKPEDTAVYYCAAVGRPPYAGDRGYWGQGTQVTVSS
  polyreactivity (PSR sort gate): high polyreactivity

## QVQLVESGGGLVQAGGSLRLSCAASGFTFGDYAMGWYRQAHGKERELVAAINGRSGSTYYPDSVNGRFTISRDNAKNTVYLQMNSLKPEDTAVYYCATRWRLPSRSNFDYWGQGTQVTLSS
  polyreactivity (PSR sort gate): low polyreactivity

## QVQLVESGGGLVQAGGSLRLSCAASGIIFIGNAMGWYRQAPGKERELVAAIRSGTGTNYADSVKGRFTISRDNAKNTVYLQMNSLKPEDTAVYYSNADYNSGTYTQGTHEGDYWGQGTQVTVSS
  polyreactivity (PSR sort gate): low polyreactivity

## QVQLVESGGGLVQAGGTLRLSCAASGSTFYRYAMGWYRTAPGKERELVATITRSGGSTYYADSVKGRFTISRDNAKNTVYLQMNSLKPEDTAVYYCAARGWYKSDYWGQGTQVTVSS
  polyreactivity (PSR sort gate): low polyreactivity

## QVQLVESGGGLDQAGGSLRLSCAASGRTFIYNAMGWYRQAPGKEREFVAAITWSGATTRYADSVKGRFTISRDNAKNTVYLQMNSLKPEDTAVYYCAKGGFYYYGWRSSMDYWGQGTQVTVSS
  polyreactivity (PSR sort gate): high polyreactivity

## QVQLVESGGGLVQAGCSLRLSCAASGSISSFYAMGWYRQAPGKERELVAGITSGGSTNYADSVKGRFTISRDNAKNTVYLQMNSLKPEDTAVYYCAAVYKGAGTHFDVFVKEFDYWGLGTQVTVSS
  polyreactivity (PSR sort gate): low polyreactivity

— the nanobody polyreactivity screen of Harvey et al. (2022)
